In US20180064827:

What was measured:
Assay in all cases: cell_activity
[1] = system: ZFN 60461 (synthetic); conditions: pair with 64971, Hepa1-6
[2] = system: ZFN 64982 (synthetic); conditions: pair with 64971, Hepa1-6; finger linker variant 64972 gave 89.0
[3] = system: ZFN 64983 (synthetic); conditions: pair with 64971, Hepa1-6
[4] = system: ZFN 69922 (synthetic); conditions: pair with 69916, 0.1 ug mRNA, MK2
[5] = system: ZFN 69925 (synthetic); conditions: pair with 69916, 0.1 ug mRNA, MK2
[6] = system: ZFN 69926 (synthetic); conditions: pair with 69915, 0.1 ug mRNA, MK2
[7] = system: ZFN 69928 (synthetic); conditions: pair with 69916, 0.1 ug mRNA, MK2
[8] = system: ZFN 69929 (synthetic); conditions: pair with 69920, 0.1 ug mRNA, MK2
[9] = system: ZFN 60334 (synthetic); conditions: pair with 60137, K562
[10] = system: ZFN 25264 (synthetic); conditions: pair with 25277, K562, 200 ng
[11] = system: ZFN 69903 (synthetic); conditions: pair with 69912, 0.1 ug mRNA, MK2
[12] = system: ZFN 69908 (synthetic); conditions: pair with 69912, 0.1 ug mRNA, MK2
[13] = system: ZFN 69909 (synthetic); conditions: pair with 69912, 0.1 ug mRNA, MK2
[14] = system: ZFN 69915 (synthetic); conditions: pair with 69922, 0.1 ug mRNA, MK2
[15] = system: ZFN 69916 (synthetic); conditions: pair with 69922, 0.1 ug mRNA, MK2
[16] = system: ZFN 69918 (synthetic); conditions: pair with 69922, 0.1 ug mRNA, MK2
[17] = system: ZFN 69919 (synthetic); conditions: pair with 69922, 0.1 ug mRNA, MK2
[18] = system: ZFN 69920 (synthetic); conditions: pair with 69922, 0.1 ug mRNA, MK2
[19] = system: ZFN 60460 (synthetic); conditions: pair with 64982, Hepa1-6
[20] = system: ZFN 64969 (synthetic); conditions: pair with 64982, Hepa1-6
[21] = system: ZFN 64971 (synthetic); conditions: pair with 64982, Hepa1-6
[22] = system: ZFN 69912 (synthetic); conditions: pair with 69909, 0.1 ug mRNA, MK2
[23] = system: ZFN 69913 (synthetic); conditions: pair with 69909, 0.1 ug mRNA, MK2
[24] = system: ZFN 58781 (synthetic); conditions: pair with 65086, Hepa1-6
[25] = system: ZFN 65094 (synthetic); conditions: pair with 65086, Hepa1-6
[26] = system: ZFN 65095 (synthetic); conditions: pair with 65086, Hepa1-6
[27] = system: ZFN 65098 (synthetic); conditions: pair with 65086, Hepa1-6
[28] = system: ZFN 60045 (synthetic); conditions: pair with 60043, K562
[29] = system: ZFN 60309 (synthetic); conditions: pair with 60308, K562
[30] = system: ZFN 64555 (synthetic); conditions: pair with 66075, 5 ug/mL
[31] = system: ZFN 60393 (synthetic); conditions: pair with 64989, Hepa1-6
[32] = system: ZFN 65021 (synthetic); conditions: pair with 64989, Hepa1-6
[33] = system: ZFN 65022 (synthetic); conditions: pair with 64989, Hepa1-6
[34] = system: ZFN 60422 (synthetic); conditions: pair with 64842, Hepa1-6
[35] = system: ZFN 64791 (synthetic); conditions: pair with 64842, Hepa1-6
[36] = system: ZFN 64793 (synthetic); conditions: pair with 64842, Hepa1-6
[37] = system: ZFN 64802 (synthetic); conditions: pair with 64842, Hepa1-6
[38] = system: ZFN 64347 (synthetic); conditions: pair with 60751, HepG2, 40 ug/mL
[39] = system: ZFN 60308 (synthetic); conditions: pair with 60309, K562
[40] = system: ZFN 60751 (synthetic); conditions: pair with 64347, HepG2, 40 ug/mL
[41] = system: ZFN 67493 (synthetic); conditions: pair with 60750, HepG2, 40 ug/mL
[42] = system: ZFN 67495 (synthetic); conditions: pair with 60750, HepG2, 40 ug/mL
[43] = system: ZFN 60134 (synthetic); conditions: pair with 60133, K562

Question: How did the activity [1] turn out when “GGGGTGGTGACTCACCGGCCACGTGGGC (double strand) [mouse PCSK9 site F right]” was run?
Answer: 85.8 % indel

Question: And the activity [2]?
Answer: 95.9 % indel

Question: What about the activity [3] of the same sequence?
Answer: 95.2 % indel

Question: For “GGGGTGGTGACTTACCAGCCACGTGGGC (double strand) [M. mulatta PCSK9 exon 7 right]”, which activity [4] is on record?
Answer: 81.4 % indel

Question: What about the activity [5] of the same sequence?
Answer: 77 % indel

Question: And the activity [6]?
Answer: 37 % indel

Question: And the activity [7]?
Answer: 69.2 % indel

Question: What about the activity [8] of the same sequence?
Answer: 43.3 % indel

Question: “GGTACCGGGCGGATGAATACCAGCCCCC (double strand) [human PCSK9 60334 site]” was tested. Which activity [9] did it give?
Answer: 67.9 % indel

Question: How did the activity [10] turn out when “GTCGATGGTCAGCACAGCCTTATGCACG (double strand) [SERPINA1 25264 site]” was run?
Answer: 40.9 % indel

Question: For “GTGGAGGCTGCCCGGCACCTACGTGGTG (double strand) [M. mulatta PCSK9 exon 2 left]”, which activity [11] is on record?
Answer: 33.7 % indel

Question: What about the activity [12] of the same sequence?
Answer: 42.5 % indel

Question: What about the activity [13] of the same sequence?
Answer: 58.7 % indel

Question: For “GTGGGACATCGCAGGCTGCTGCCCACGT (double strand) [M. mulatta PCSK9 exon 7 left]”, which activity [14] is on record?
Answer: 78 % indel

Question: What about the activity [15] of the same sequence?
Answer: 81.4 % indel

Question: And the activity [16]?
Answer: 71.2 % indel

Question: And the activity [17]?
Answer: 76.1 % indel

Question: And the activity [18]?
Answer: 72.1 % indel

Question: How did the activity [19] turn out when “GTGGGACCTCACAGGCTGCTGCCCACGT (double strand) [mouse PCSK9 site F left]” was run?
Answer: 53.8 % indel

Question: What about the activity [20] of the same sequence?
Answer: 86.1 % indel

Question: What about the activity [21] of the same sequence?
Answer: 95.9 % indel

Question: Which activity [22] does the source give for “GTGGTGCTGAAGGAGGAGACCCACCGCT (double strand) [M. mulatta PCSK9 exon 2 right]” here?
Answer: 58.7 % indel

Question: What about the activity [23] of the same sequence?
Answer: 53.4 % indel

Question: Which activity [24] does the source give for “GTGGTGCTGATGGAGGAGACCCAGAGGC (double strand) [mouse PCSK9 site J right]” here?
Answer: 62.3 % indel

Question: What about the activity [25] of the same sequence?
Answer: 77.8 % indel

Question: And the activity [26]?
Answer: 76.7 % indel

Question: What about the activity [27] of the same sequence?
Answer: 77.2 % indel

Question: Which activity [28] does the source give for “TACGTGGTGGTGCTGAAGGAGGAGACCC (double strand) [human PCSK9 60045 site]” here?
Answer: 65.4 % indel

Question: With “TATCCCCGGCGGGCAGCCTGGGCCTGCA (double strand) [human PCSK9 60309 site]” as the sequence, how does the activity [29] read?
Answer: 71.8 % indel

Question: “TCCCAGCTGATAGATGGGTCTATTGCTT (double strand) [M. mulatta HAO1 right]” was tested. Which activity [30] did it give?
Answer: 86.9 % indel

Question: How did the activity [31] turn out when “TCCTCCTGGGACGGGAGGGCGAGCATCA (double strand) [mouse PCSK9 site G right]” was run?
Answer: 60.9 % indel

Question: And the activity [32]?
Answer: 83.3 % indel

Question: And the activity [33]?
Answer: 76.3 % indel

Question: For “TCGGGAGATTGAGGGCAGGGTCACCATC (double strand) [mouse PCSK9 site A left]”, which activity [34] is on record?
Answer: 35 % indel

Question: What about the activity [35] of the same sequence?
Answer: 41.8 % indel

Question: And the activity [36]?
Answer: 44.9 % indel

Question: What about the activity [37] of the same sequence?
Answer: 43 % indel

Question: “TCTTACTGGAAGGCACTTGGCATCTCCC (double strand) [human TTR 64347 site]” was tested. Which activity [38] did it give?
Answer: 63.5 % indel

Question: With “TGCAGGCGGCGGGCAGTGCGCTCTGACT (double strand) [human PCSK9 60308 site]” as the sequence, how does the activity [39] read?
Answer: 71.8 % indel

Question: With “TGCATGCTCATGGAATGGGGAGATGCCA (double strand) [human TTR exon 3 right]” as the sequence, how does the activity [40] read?
Answer: 63.5 % indel

Question: What about the activity [41] of the same sequence?
Answer: 59.2 % indel

Question: And the activity [42]?
Answer: 61.8 % indel

Question: With “TTACCGGGGGGCTGGTATTCATCCGCCC (double strand) [human PCSK9 60134 site]” as the sequence, how does the activity [43] read?
Answer: 72.6 % indel
